Patent US20240392004A1 (IMMUNOWAKE, published 2024)

Tests used:
[1] = target: T1, human PD-1 (human, UniProt Q15116 25-167, limits assumed); test: PD-L1-Fc format, calibrated on PD-L1(wt)-Fc, method not stated
T1 construct: also called hPD-1

[2] = target: T2, mouse PD-1 (mouse, UniProt Q02242 25-167, limits assumed); test: as above
T2 construct: also called mPD-1
T2 sequence (looked up): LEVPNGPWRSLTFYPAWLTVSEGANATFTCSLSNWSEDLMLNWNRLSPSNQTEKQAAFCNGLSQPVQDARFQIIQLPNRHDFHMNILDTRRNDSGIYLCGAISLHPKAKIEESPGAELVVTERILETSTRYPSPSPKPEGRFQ

T1 sequence (Q15116 25-167 limits assumed): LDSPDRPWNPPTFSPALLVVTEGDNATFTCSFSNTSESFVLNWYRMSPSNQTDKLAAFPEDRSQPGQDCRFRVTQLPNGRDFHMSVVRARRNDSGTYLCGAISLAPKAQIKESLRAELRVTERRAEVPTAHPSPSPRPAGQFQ

B1: PD-L1(mut3)-Fc, I54Q/R113T/M115L/S117A/G119K (Fc fusion)
chain 1: FTVTVPKDLYVVEYGSNMTIECKFPVEKQLDLAALQVYWEMEDKNIIQFVHGEEDLKVQHSSYRQRARLLKDQLSLGNAALQITDVKLQDAGVYTCLIAYKGADYKRITVKVNAPYNKINQRILVVDPVTSEHELTCQAEGYPKAEVIWTSSDHQVLSGKTTTTNSKREEKLFNVTSTLRINTTTNEIFYCTFRRLDPEENHTAELVIPELPLAHPPNERDKTHTCPPCPAPEDEGGPSVFLFPPKPKDTLMISRTPEVTCVVVDVSHEDPEVKFNWYVDGVEVHNAKTKPREEQYNSTYRVVSVLTVLHQDWLNGKEYKCKVSNKALPAPIEKTISKAKGQPREPQVYVYPPSREEMTKNQVSLTCLVKGFYPSDIAVEWESNGQPENNYKTTPPVLDEDGSFALVSKLTVDKSRWQQGNVFSCSVMHEALHNHYTQKSLSLSPGK
chain 2: FTVTVPKDLYVVEYGSNMTIECKFPVEKQLDLAALQVYWEMEDKNIIQFVHGEEDLKVQHSSYRQRARLLKDQLSLGNAALQITDVKLQDAGVYTCLIAYKGADYKRITVKVNAPYNKINQRILVVDPVTSEHELTCQAEGYPKAEVIWTSSDHQVLSGKTTTTNSKREEKLFNVTSTLRINTTTNEIFYCTFRRLDPEENHTAELVIPELPLAHPPNERDKTHTCPPCPAPEKKGGPSVFLFPPKPKDTLMISRTPEVTCVVVDVSHEDPEVKFNWYVDGVEVHNAKTKPREEQYNSTYRVVSVLTVLHQDWLNGKEYKCKVSNKALPAPIEKTISKAKGQPREPQVYVLPPSREEMTKNQVSLLCLVKGFYPSDIAVEWESNGQPENRYMTWPPVLDSDGSFFLYSKLTVDKSRWQQGNVFSCSVMHEALHNHYTQKSLSLSPGK
[1]
  Kd: 910 nM
[2]
  Kd: 820 nM

B2: PD-L1(mut6)-Fc, I54Q/E58M/R113T/M115L/G119K (Fc fusion)
chain 1: FTVTVPKDLYVVEYGSNMTIECKFPVEKQLDLAALQVYWMMEDKNIIQFVHGEEDLKVQHSSYRQRARLLKDQLSLGNAALQITDVKLQDAGVYTCLISYKGADYKRITVKVNAPYNKINQRILVVDPVTSEHELTCQAEGYPKAEVIWTSSDHQVLSGKTTTTNSKREEKLFNVTSTLRINTTTNEIFYCTFRRLDPEENHTAELVIPELPLAHPPNERDKTHTCPPCPAPEDEGGPSVFLFPPKPKDTLMISRTPEVTCVVVDVSHEDPEVKFNWYVDGVEVHNAKTKPREEQYNSTYRVVSVLTVLHQDWLNGKEYKCKVSNKALPAPIEKTISKAKGQPREPQVYVYPPSREEMTKNQVSLTCLVKGFYPSDIAVEWESNGQPENNYKTTPPVLDEDGSFALVSKLTVDKSRWQQGNVFSCSVMHEALHNHYTQKSLSLSPGK
chain 2: FTVTVPKDLYVVEYGSNMTIECKFPVEKQLDLAALQVYWMMEDKNIIQFVHGEEDLKVQHSSYRQRARLLKDQLSLGNAALQITDVKLQDAGVYTCLISYKGADYKRITVKVNAPYNKINQRILVVDPVTSEHELTCQAEGYPKAEVIWTSSDHQVLSGKTTTTNSKREEKLFNVTSTLRINTTTNEIFYCTFRRLDPEENHTAELVIPELPLAHPPNERDKTHTCPPCPAPEKKGGPSVFLFPPKPKDTLMISRTPEVTCVVVDVSHEDPEVKFNWYVDGVEVHNAKTKPREEQYNSTYRVVSVLTVLHQDWLNGKEYKCKVSNKALPAPIEKTISKAKGQPREPQVYVLPPSREEMTKNQVSLLCLVKGFYPSDIAVEWESNGQPENRYMTWPPVLDSDGSFFLYSKLTVDKSRWQQGNVFSCSVMHEALHNHYTQKSLSLSPGK
[1]
  Kd: 555 nM
[2]
  Kd: 420 nM

B3: PD-L1(mut5)-Fc, I54Q/E58M/R113T/S117A/G119K (Fc fusion)
chain 1: FTVTVPKDLYVVEYGSNMTIECKFPVEKQLDLAALQVYWMMEDKNIIQFVHGEEDLKVQHSSYRQRARLLKDQLSLGNAALQITDVKLQDAGVYTCMIAYKGADYKRITVKVNAPYNKINQRILVVDPVTSEHELTCQAEGYPKAEVIWTSSDHQVLSGKTTTTNSKREEKLFNVTSTLRINTTTNEIFYCTFRRLDPEENHTAELVIPELPLAHPPNERDKTHTCPPCPAPEDEGGPSVFLFPPKPKDTLMISRTPEVTCVVVDVSHEDPEVKFNWYVDGVEVHNAKTKPREEQYNSTYRVVSVLTVLHQDWLNGKEYKCKVSNKALPAPIEKTISKAKGQPREPQVYVYPPSREEMTKNQVSLTCLVKGFYPSDIAVEWESNGQPENNYKTTPPVLDEDGSFALVSKLTVDKSRWQQGNVFSCSVMHEALHNHYTQKSLSLSPGK
chain 2: FTVTVPKDLYVVEYGSNMTIECKFPVEKQLDLAALQVYWMMEDKNIIQFVHGEEDLKVQHSSYRQRARLLKDQLSLGNAALQITDVKLQDAGVYTCMIAYKGADYKRITVKVNAPYNKINQRILVVDPVTSEHELTCQAEGYPKAEVIWTSSDHQVLSGKTTTTNSKREEKLFNVTSTLRINTTTNEIFYCTFRRLDPEENHTAELVIPELPLAHPPNERDKTHTCPPCPAPEKKGGPSVFLFPPKPKDTLMISRTPEVTCVVVDVSHEDPEVKFNWYVDGVEVHNAKTKPREEQYNSTYRVVSVLTVLHQDWLNGKEYKCKVSNKALPAPIEKTISKAKGQPREPQVYVLPPSREEMTKNQVSLLCLVKGFYPSDIAVEWESNGQPENRYMTWPPVLDSDGSFFLYSKLTVDKSRWQQGNVFSCSVMHEALHNHYTQKSLSLSPGK
[1]
  Kd: 1200 nM
[2]
  Kd: 1100 nM

B4: PD-L1(mut4)-Fc, I54Q/E58M/M115L/S117A/G119K (Fc fusion)
chain 1: FTVTVPKDLYVVEYGSNMTIECKFPVEKQLDLAALQVYWMMEDKNIIQFVHGEEDLKVQHSSYRQRARLLKDQLSLGNAALQITDVKLQDAGVYRCLIAYKGADYKRITVKVNAPYNKINQRILVVDPVTSEHELTCQAEGYPKAEVIWTSSDHQVLSGKTTTTNSKREEKLFNVTSTLRINTTTNEIFYCTFRRLDPEENHTAELVIPELPLAHPPNERDKTHTCPPCPAPEDEGGPSVFLFPPKPKDTLMISRTPEVTCVVVDVSHEDPEVKFNWYVDGVEVHNAKTKPREEQYNSTYRVVSVLTVLHQDWLNGKEYKCKVSNKALPAPIEKTISKAKGQPREPQVYVYPPSREEMTKNQVSLTCLVKGFYPSDIAVEWESNGQPENNYKTTPPVLDEDGSFALVSKLTVDKSRWQQGNVFSCSVMHEALHNHYTQKSLSLSPGK
chain 2: FTVTVPKDLYVVEYGSNMTIECKFPVEKQLDLAALQVYWMMEDKNIIQFVHGEEDLKVQHSSYRQRARLLKDQLSLGNAALQITDVKLQDAGVYRCLIAYKGADYKRITVKVNAPYNKINQRILVVDPVTSEHELTCQAEGYPKAEVIWTSSDHQVLSGKTTTTNSKREEKLFNVTSTLRINTTTNEIFYCTFRRLDPEENHTAELVIPELPLAHPPNERDKTHTCPPCPAPEKKGGPSVFLFPPKPKDTLMISRTPEVTCVVVDVSHEDPEVKFNWYVDGVEVHNAKTKPREEQYNSTYRVVSVLTVLHQDWLNGKEYKCKVSNKALPAPIEKTISKAKGQPREPQVYVLPPSREEMTKNQVSLLCLVKGFYPSDIAVEWESNGQPENRYMTWPPVLDSDGSFFLYSKLTVDKSRWQQGNVFSCSVMHEALHNHYTQKSLSLSPGK
[1]
  Kd: 1090 nM
[2]
  Kd: 980 nM

B5: PD-L1(mut7)-Fc, I54Q/E58M/R113T/M115L/S117A (Fc fusion)
chain 1: FTVTVPKDLYVVEYGSNMTIECKFPVEKQLDLAALQVYWMMEDKNIIQFVHGEEDLKVQHSSYRQRARLLKDQLSLGNAALQITDVKLQDAGVYTCLIAYGGADYKRITVKVNAPYNKINQRILVVDPVTSEHELTCQAEGYPKAEVIWTSSDHQVLSGKTTTTNSKREEKLFNVTSTLRINTTTNEIFYCTFRRLDPEENHTAELVIPELPLAHPPNERGGGGSGGGDKTHTCPPCPAPEDEGGPSVFLFPPKPKDTLMISRTPEVTCVVVDVSHEDPEVKFNWYVDGVEVHNAKTKPREEQYNSTYRVVSVLTVLHQDWLNGKEYKCKVSNKALPAPIEKTISKAKGQPREPQVYVYPPSREEMTKNQVSLTCLVKGFYPSDIAVEWESNGQPENNYKTTPPVLDEDGSFALVSKLTVDKSRWQQGNVFSCSVMHEALHNHYTQKSLSLSPGK
chain 2: FTVTVPKDLYVVEYGSNMTIECKFPVEKQLDLAALQVYWMMEDKNIIQFVHGEEDLKVQHSSYRQRARLLKDQLSLGNAALQITDVKLQDAGVYTCLIAYGGADYKRITVKVNAPYNKINQRILVVDPVTSEHELTCQAEGYPKAEVIWTSSDHQVLSGKTTTTNSKREEKLFNVTSTLRINTTTNEIFYCTFRRLDPEENHTAELVIPELPLAHPPNERGGGGSGGGDKTHTCPPCPAPEKKGGPSVFLFPPKPKDTLMISRTPEVTCVVVDVSHEDPEVKFNWYVDGVEVHNAKTKPREEQYNSTYRVVSVLTVLHQDWLNGKEYKCKVSNKALPAPIEKTISKAKGQPREPQVYVLPPSREEMTKNQVSLLCLVKGFYPSDIAVEWESNGQPENRYMTWPPVLDSDGSFFLYSKLTVDKSRWQQGNVFSCSVMHEALHNHYTQKSLSLSPGK
[1]
  Kd: 98 nM
[2]
  Kd: 110 nM
